Data taken from patent US20260176254A1, “INHIBITORS OF PROSTATE SPECIFIC MEMBRANE ANTIGEN AND USE THEREOF” (SHANGHAI SINOTAU BIOTECH. CO., LTD, priority 2023, published 2026).

What was measured:
[1] = Tissue biodistribution in LnCAP tumor mouse model; set-up: species or system mice; settings: male, SCID, in vivo, iv, total radioactivity
Source text: (§1) LnCAP and 22RV1 CDX xenograft tumor models were generated by inoculating 5×10^6 cells/site subcutaneously in male SCID or nude mice (Vital River), respectively. Animals were housed according to IACUC guidance and had accessed to food and water ad libitium. Animals were used for biodistribution study when the tumor dimensions reached around 0.2-0.3 cm^3. […] At each tome point, animals were sacrificed and tissues were collected, weighted, and subjected to radioactivity measurements using gamma counter. Radioactivity in the tissues was presented in % ID/g (percent of injected dose per gram).

[2] = test system: LnCAP CDX xenograft tumor; assay: Tissue biodistribution in LnCAP tumor mouse model; set-up: species or system mice; settings: male, SCID, in vivo, iv
Source text: as §1

## O=C(O)CN1CCN(CC(=O)O)CCN(CC(=O)NC23CCC(Nc4c(N[C@@H](Cc5c6ccccc6cc6ccccc56)C(=O)NCCCC[C@H](NC(=O)N[C@@H](CNC(=O)C(=O)O)C(=O)O)C(=O)O)c(=O)c4=O)(CC2)CC3)CCN(CC(=O)O)CC1 [[^177Lu]Lu-E8, metal not drawn]
[1]
  tissue uptake dose at 2 h: 16.4 ± 1.14 %ID
  tissue uptake dose at 6 h: 4.69 ± 0.79 %ID
  tissue uptake dose at 24 h: 3.21 ± 2.01 %ID
  tissue uptake dose at 72 h: 0.99 ± 0.2 %ID
  tissue uptake dose at 168 h: 0.91 ± 0.03 %ID
[1]; T/NT ratio Tumor/Bone
  tissue to tissue ratio: 183
[1]; T/NT ratio Tumor/Salivary Gland
  tissue to tissue ratio: 220
[1]; Tissue biodistribution: Blood
  tissue uptake at 2 h: 0.87 ± 0.21 %ID/g
  tissue uptake at 6 h: 0.16 ± 0.04 %ID/g
  tissue uptake at 24 h: 0.03 ± 0.01 %ID/g
  tissue uptake at 72 h: 0.03 ± 0.01 %ID/g
  tissue uptake at 168 h: 0.03 ± 0.01 %ID/g
[1]; Tissue biodistribution: Bone
  tissue uptake at 2 h: 0.74 ± 0.16 %ID/g
  tissue uptake at 6 h: 0.33 ± 0.11 %ID/g
  tissue uptake at 24 h: 0.19 ± 0.01 %ID/g
  tissue uptake at 72 h: 0.22 ± 0.02 %ID/g
  tissue uptake at 168 h: 0.26 ± 0.04 %ID/g
[1]; Tissue biodistribution: Gland
  tissue uptake at 2 h: 1.96 ± 0.74 %ID/g
  tissue uptake at 6 h: 0.51 ± 0.1 %ID/g
  tissue uptake at 24 h: 0.18 ± 0.04 %ID/g
  tissue uptake at 72 h: 0.11 ± 0.01 %ID/g
  tissue uptake at 168 h: 0.1 %ID/g
[1]; Tissue biodistribution: Heart
  tissue uptake at 2 h: 1 ± 0.4 %ID/g
  tissue uptake at 6 h: 0.26 ± 0.13 %ID/g
  tissue uptake at 24 h: 0.11 %ID/g
  tissue uptake at 72 h: 0.09 %ID/g
  tissue uptake at 168 h: 0.11 %ID/g
[1]; Tissue biodistribution: Kidney
  tissue uptake at 2 h: 133 ± 12.3 %ID/g
  tissue uptake at 6 h: 122 ± 20.9 %ID/g
  tissue uptake at 24 h: 15.7 ± 4.09 %ID/g
  tissue uptake at 72 h: 1.28 ± 0.08 %ID/g
  tissue uptake at 168 h: 0.69 ± 0.32 %ID/g
[1]; Tissue biodistribution: Liver
  tissue uptake at 2 h: 0.58 ± 0.17 %ID/g
  tissue uptake at 6 h: 0.33 ± 0.05 %ID/g
  tissue uptake at 24 h: 0.23 ± 0.03 %ID/g
  tissue uptake at 72 h: 0.18 ± 0.02 %ID/g
  tissue uptake at 168 h: 0.15 ± 0.03 %ID/g
[1]; Tissue biodistribution: Lung
  tissue uptake at 2 h: 2.97 ± 0.89 %ID/g
  tissue uptake at 6 h: 0.75 ± 0.14 %ID/g
  tissue uptake at 24 h: 0.18 ± 0.03 %ID/g
  tissue uptake at 72 h: 0.08 ± 0.01 %ID/g
  tissue uptake at 168 h: 0.1 ± 0.04 %ID/g
[1]; Tissue biodistribution: Muscle
  tissue uptake at 2 h: 0.46 ± 0.09 %ID/g
  tissue uptake at 6 h: 0.14 ± 0.04 %ID/g
  tissue uptake at 24 h: 0.04 ± 0.01 %ID/g
  tissue uptake at 72 h: 0.03 %ID/g
  tissue uptake at 168 h: 0.04 ± 0.01 %ID/g
[1]; Tissue biodistribution: Spleen
  tissue uptake at 2 h: 3.87 ± 1.15 %ID/g
  tissue uptake at 6 h: 1.05 ± 0.15 %ID/g
  tissue uptake at 24 h: 0.39 ± 0.14 %ID/g
  tissue uptake at 72 h: 0.31 ± 0.08 %ID/g
  tissue uptake at 168 h: 0.43 ± 0.13 %ID/g
[1]; Tissue biodistribution: Tumor
  tissue uptake at 2 h: 30.8 ± 6.34 %ID/g
  tissue uptake at 6 h: 35.7 ± 5.05 %ID/g
  tissue uptake at 24 h: 37.9 ± 8.46 %ID/g
  tissue uptake at 72 h: 48.2 ± 10 %ID/g
  tissue uptake at 168 h: 44.3 ± 8.77 %ID/g
[1]; Tumor/Blood
  tissue to tissue ratio at 2 h: 38.4 ± 18.7
  tissue to tissue ratio at 6 h: 237 ± 57.6
  tissue to tissue ratio at 24 h: 1150 ± 312
  tissue to tissue ratio at 72 h: 1690 ± 343
  tissue to tissue ratio at 168 h: 1630 ± 208
[1]; Tumor/Bone
  tissue to tissue ratio at 2 h: 44.7 ± 20.4
  tissue to tissue ratio at 6 h: 117 ± 45.7
  tissue to tissue ratio at 24 h: 200 ± 55.6
  tissue to tissue ratio at 72 h: 223 ± 43.2
  tissue to tissue ratio at 168 h: 170 ± 19.3
[1]; Tumor/Kidney
  tissue to tissue ratio at 2 h: 0.24 ± 0.07
  tissue to tissue ratio at 6 h: 0.3 ± 0.05
  tissue to tissue ratio at 24 h: 2.59 ± 1.05
  tissue to tissue ratio at 72 h: 37.5 ± 6.4
  tissue to tissue ratio at 168 h: 70.9 ± 22.8
[2]
  T/NT ratio Tumor/Bone: 169.77
  T/NT ratio Tumor/Salivary Gland: 422.38
